Assay results reported in patent publication US20220041658A1 (PROTAGONIST THERAPEUTICS, published 2022).
Positions of bridges follow the written chain, without caps; N, C: chain ends. Non-standard residues stand in square brackets, D forms with d. Trp(7-Me) = Cc1cccc2c(C[C@H](N)C(=O)O)c[nH]c12; 2Nal = N[C@@H](Cc1ccc2ccccc2c1)C(=O)O; AEF = NCCOc1ccc(C[C@H](N)C(=O)O)cc1; αMeL = CC(C)C[C@](C)(N)C(=O)O; Pen = CC(C)(S)[C@H](N)C(=O)O; αMeK = C[C@](N)(CCCCN)C(=O)O; βAla = NCCC(=O)O

T1: interleukin-23 receptor (IL-23R) (human, UniProt Q5VWK5 24-629)
T1 sequence (looked up): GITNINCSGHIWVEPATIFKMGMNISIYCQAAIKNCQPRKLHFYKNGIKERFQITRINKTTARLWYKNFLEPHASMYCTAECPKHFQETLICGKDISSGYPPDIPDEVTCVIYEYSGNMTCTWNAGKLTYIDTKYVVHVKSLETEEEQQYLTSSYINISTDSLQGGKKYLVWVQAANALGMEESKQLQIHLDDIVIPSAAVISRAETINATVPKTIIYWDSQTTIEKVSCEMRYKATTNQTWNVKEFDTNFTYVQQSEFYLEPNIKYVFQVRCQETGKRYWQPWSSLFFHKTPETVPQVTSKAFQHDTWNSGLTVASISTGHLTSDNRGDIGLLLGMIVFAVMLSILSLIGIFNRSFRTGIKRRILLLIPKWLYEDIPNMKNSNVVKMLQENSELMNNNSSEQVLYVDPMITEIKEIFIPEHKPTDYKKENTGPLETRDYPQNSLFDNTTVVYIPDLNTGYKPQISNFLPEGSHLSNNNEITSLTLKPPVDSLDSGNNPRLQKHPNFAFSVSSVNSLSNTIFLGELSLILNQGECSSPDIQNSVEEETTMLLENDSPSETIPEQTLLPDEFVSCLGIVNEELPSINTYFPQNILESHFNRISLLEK

B1: Peptide of SEQ ID NO: 221 (peptide)
peptide: XNTXQXXXXKSX
modifications: Ac-[Pen]-NT-[W(7-Me)]-Q-[Pen]-Phe[4-(2-aminoethoxy)]-[2-Nal]-[a-MeLeu]-[Lys(Ac)]-S-[bA]-NH2; Pen-Pen disulfide
B2: Peptide of SEQ ID NO: 209 (peptide)
peptide: XNTXQXXXXKAX
modifications: Ac-[Pen]-NT-[W(7-Me)]-Q-[Pen]-Phe[4-(2-aminoethoxy)]-[2-Nal]-[a-MeLeu]-[Lys(Ac)]-[(D)Ala]-[bA]-NH2; Pen-Pen disulfide
B3: Peptide of SEQ ID NO: 206 (peptide)
peptide: XNTXQXXXXKXX
modifications: Ac-[Pen]-NT-[W(7-Me)]-Q-[Pen]-Phe[4-(2-aminoethoxy)]-[2-Nal]-[a-MeLeu]-[Lys(Ac)]-[Cit]-[bA]-NH2; Pen-Pen disulfide
B4: Peptide of SEQ ID NO: 360 (peptide)
peptide: XNTXKXXXXXNL
modifications: Ac-[Pen]-N-T-[W(7-Me)]-[Lys(Ac)]-[Pen]-Phe[4-(2-aminoethoxy)]-[2-Nal]-[a-MeLys]-[Lys(trifluoropropionic)]-N-[(D)Leu]-NH2; Pen-Pen disulfide
B5: Peptide of SEQ ID NO: 205 (peptide)
peptide: XNTXQXXXXKGX
modifications: Ac-[Pen]-NT-[W(7-Me)]-Q-[Pen]-Phe[4-(2-aminoethoxy)]-[2-Nal]-[a-MeLeu]-[Lys(Ac)]-G-[bA]-NH2; Pen-Pen disulfide
B6: Peptide of SEQ ID NO: 215 (peptide)
peptide: XNTXQXXXXKHX
modifications: Ac-[Pen]-NT-[W(7-Me)]-Q-[Pen]-Phe[4-(2-aminoethoxy)]-[2-Nal]-[a-MeLeu]-[Lys(Ac)]-[(D)His]-[bA]-NH2; Pen-Pen disulfide
B7: Peptide of SEQ ID NO: 252 (peptide)
peptide: XNTXKXXXXKNK
modifications: Ac-[Pen]-NT-[W(7-Me)]-[Lys(Ac)]-[Pen]-Phe[4-(2-aminoethoxy)]-[2-Nal]-[a-MeLys]-[Lys(Ac)]-N-[(D)Lys]-NH2; Pen-Pen disulfide
B8: Peptide of SEQ ID NO: 203 (peptide)
peptide: RXQTXQCXXXENX
modifications: Ac-[(D)Arg]-Abu-Q-T-[W(7-Me)]-Q-C-Phe[4-(2-aminoethoxy)]-[2-Nal]-[THP]-E-N-[bA]-NH2; Abu-Cys thioether
B9: Peptide of SEQ ID NO: 363 (peptide)
peptide: XNTXKXXXXXNL
modifications: Ac-[Pen]-N-T-[W(7-Me)]-[Lys(Ac)]-[Pen]-Phe[4-(2-aminoethoxy)]-[2-Nal]-[a-MeLys]-[Lys(PEG11-OMe)]-N-[(D)Leu]-NH2; Pen-Pen disulfide
B10: Peptide of SEQ ID NO: 226 (peptide)
peptide: XNTXQXXXXKXX
modifications: Ac-[Pen]-NT-[W(7-Me)]-Q-[Pen]-Phe[4-(2-aminoethoxy)]-[2-Nal]-[a-MeLeu]-[Lys(Ac)]-[bA]-[bA]-NH2; Pen-Pen disulfide
B11: Peptide of SEQ ID NO: 236 (peptide)
peptide: XNTXQXXXXXNX
modifications: Ac-[Pen]-NT-[W(7-Me)]-Q-[Pen]-Phe[4-(2-aminoethoxy)]-[2-Nal]-[a-MeLys]-[Aib]-N-[bA]-NH2; Pen-Pen disulfide
B12: Peptide of SEQ ID NO: 359 (peptide)
peptide: XNTXKXXXXXNL
modifications: not fully specified; Ac-[Pen]-N-T-[W(7-Me)]-[Lys(Ac)]-[Pen]-Phe[4-(2-aminoethoxy)]-[2-Nal]-[a-MeLys]-[Lys(benzyl)]-N-[(D)Leu]-NH2; Pen-Pen disulfide
B13: Peptide of SEQ ID NO: 362 (peptide)
peptide: XNTXKXXXXXNL
modifications: Ac-[Pen]-N-T-[W(7-Me)]-[Lys(Ac)]-[Pen]-Phe[4-(2-aminoethoxy)]-[2-Nal]-[a-MeLys]-[Lys(PEG3-OMe)]-N-[(D)Leu]-NH2; Pen-Pen disulfide
B14: Peptide of SEQ ID NO: 234 (peptide)
peptide: XNTXXXXXXKNX
modifications: Ac-[Pen]-NT-[W(7-Me)]-[a-MeLys]-[Pen]-Phe[4-(2-aminoethoxy)]-[2-Nal]-[a-MeLeu]-[Lys(Ac)]-N-[bA]-NH2; Pen-Pen disulfide
B15: Peptide of SEQ ID NO: 242 (peptide)
peptide: XNTXKXXXXKNX
modifications: Ac-[Pen]-NT-[W(7-Me)]-[Lys(Ac)]-[Pen]-Phe[4-(2-aminoethoxy)]-[2-Nal]-[a-MeLys]-[Lys(Ac)]-N-[bA]-NH2; Pen-Pen disulfide
B16: Peptide of SEQ ID NO: 232 (peptide)
peptide: XNTXQXXXXKNX
modifications: Ac-[Pen]-NT-[W(1-Me)]-Q-[Pen]-Phe[4-(2-aminoethoxy)]-[2-Nal]-[a-MeLys]-[Lys(Ac)]-N-[bA]-NH2; Pen-Pen disulfide
B17: Peptide of SEQ ID NO: 214 (peptide)
peptide: XNTXQXXXXKHX
modifications: Ac-[Pen]-NT-[W(7-Me)]-Q-[Pen]-Phe[4-(2-aminoethoxy)]-[2-Nal]-[a-MeLeu]-[Lys(Ac)]-H-[bA]-NH2; Pen-Pen disulfide
B18: Peptide of SEQ ID NO: 224 (peptide)
peptide: XNTXQXXXXKXX
modifications: Ac-[Pen]-NT-[W(7-Me)]-Q-[Pen]-Phe[4-(2-aminoethoxy)]-[2-Nal]-[a-MeLeu]-[Lys(Ac)]-[Sarc]-[bA]-NH2; Pen-Pen disulfide

Target: T1, interleukin-23 receptor (IL-23R)
Test: cell-based or functional assay

pStat3 HTRF IC50 [nM] | Binder
1.27 | B1
3.21 | Ac-[Pen]NT[Trp(7-Me)][αMeL][Pen][AEF][2Nal][αMeK]K(Ac)N[βAla]-NH2 (disulfide 1-6) [Peptide of SEQ ID NO: 235]
9.84 | B2
12 | B3
0.568 | B4
4.46 | B5
4.94 | B6
0.338 | B7
1.84 | B8
0.446 | B9
25.7 | B10
5.21 | B11
0.725 | B12
0.107 | B13
3.48 | B14
0.641 | B15
4.5 | B16
1.53 | B17
124 | B18

Target: T1, interleukin-23 receptor (IL-23R)
Test: cell-based or functional assay
Remark: another data set of the same source

NK Cell Assay IC50 [nM] | Binder
5.5 | B1
10.2 | Ac-[Pen]NT[Trp(7-Me)][αMeL][Pen][AEF][2Nal][αMeK]K(Ac)N[βAla]-NH2 (disulfide 1-6) [Peptide of SEQ ID NO: 235]
30.1 | B2
21.4 | B3
1.1 | B4
16.6 | B5
20 | B6
3.32 | B7
2.3 | B8
4.36 | B9
9.55 | B10
5.82 | B11
4.97 | B12
3.81 | B13
7.7 | B14
2.37 | B15
9 | B16
6.3 | B17
> 500 | B18
